T1: human FcγRIIa R131 (human, UniProt P12318)
T1 chain: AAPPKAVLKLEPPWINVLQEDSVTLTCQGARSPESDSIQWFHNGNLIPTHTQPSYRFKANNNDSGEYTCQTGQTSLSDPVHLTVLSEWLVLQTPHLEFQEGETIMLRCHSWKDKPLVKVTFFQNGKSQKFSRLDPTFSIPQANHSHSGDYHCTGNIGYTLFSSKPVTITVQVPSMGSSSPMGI

T2: human FcγRIIa H131 (human, UniProt P12318)
T2 chain: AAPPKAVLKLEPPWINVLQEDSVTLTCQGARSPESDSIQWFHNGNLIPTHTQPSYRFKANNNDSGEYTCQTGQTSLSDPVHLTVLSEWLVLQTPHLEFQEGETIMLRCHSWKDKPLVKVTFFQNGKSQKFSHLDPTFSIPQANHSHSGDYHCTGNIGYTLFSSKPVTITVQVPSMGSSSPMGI

T3: human FcγRIa (human, UniProt P12314)
T3 chain: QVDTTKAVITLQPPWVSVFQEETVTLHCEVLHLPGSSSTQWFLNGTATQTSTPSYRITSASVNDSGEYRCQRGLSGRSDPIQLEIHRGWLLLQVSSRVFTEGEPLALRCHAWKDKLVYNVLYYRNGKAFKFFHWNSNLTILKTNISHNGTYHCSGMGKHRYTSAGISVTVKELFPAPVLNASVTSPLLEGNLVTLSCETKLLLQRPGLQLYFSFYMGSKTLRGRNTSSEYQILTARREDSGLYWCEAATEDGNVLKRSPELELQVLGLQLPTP

T4: human FcγRIIb (human, UniProt P31994)
T4 chain: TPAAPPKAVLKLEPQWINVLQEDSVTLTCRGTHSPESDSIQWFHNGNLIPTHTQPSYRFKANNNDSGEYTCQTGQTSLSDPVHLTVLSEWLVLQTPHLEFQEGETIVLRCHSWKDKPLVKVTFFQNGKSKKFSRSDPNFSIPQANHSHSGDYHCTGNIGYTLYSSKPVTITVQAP

B1: IL6R-BP264 (antibody)
chain 1: QVQLQESGPGLVKPSETLSLTCAVSGHSISHDHAWSWVRQPPGEGLEWIGFISYSGITNYNPSLQGRVTISRDNSKNTLYLQMNSLRAEDTAVYYCARSLARTTAMDYWGEGTLVTVSSASTKGPSVFPLAPSSKSTSGGTAALGCLVKDYFPEPVTVSWNSGALTSGVHTFPAVLQSSGLYSLSSVVTVPSSSLGTQTYICNVNHKPSNTKVDKKVEPKSCDKTHTCPPCPAPDLLGDDSVFLFPPKPKDTLMISRTPEVTCVVVDVSEEDGEVKFNWYVDGVEVHNAKTKPREEQDNSTYRVVSVLTVLHQDWLNGKEYKCKVSNKALPRPIEKTISKAKGQPREPQVYTLPPSRDELTKNQVSLTCLVKGFYPSDIAVEWESNGQPENNYKTTPPVLDSDGSFFLYSKLTVDKSRWQQGNVFSCSVMHEALHNHYTQESLSLSP
chain 2: not shown
B2: IL6R-BP507 (antibody)
chain 1: QVQLQESGPGLVKPSETLSLTCAVSGHSISHDHAWSWVRQPPGEGLEWIGFISYSGITNYNPSLQGRVTISRDNSKNTLYLQMNSLRAEDTAVYYCARSLARTTAMDYWGEGTLVTVSSASTKGPSVFPLAPSSKSTSGGTAALGCLVKDYFPEPVTVSWNSGALTSGVHTFPAVLQSSGLYSLSSVVTVPSSSLGTQTYICNVNHKPSNTKVDKKVEPKSCDKTHTCPPCPAPDLLGDDSVFLFPPKPKDTLMISRTPEVTCVVIDVAEEDGPVKFNWYVDGVEVHNAKTKPREEQYNSTYRVVSVLTVLHQDWLNGKEYKCKVSNKALPRPIEKTISKAKGQPREPQVYTLPPSRDELTKNQVSLTCLVKGFYPSDIAVEWESNGQPENNYKTTPPVLDSDGSFFLYSKLTVDKSRWQQGNVFSCSVMHEALHNHYTQESLSLSP
chain 2: not shown
B3: IL6R-BP490 (antibody)
chain 1: QVQLQESGPGLVKPSETLSLTCAVSGHSISHDHAWSWVRQPPGEGLEWIGFISYSGITNYNPSLQGRVTISRDNSKNTLYLQMNSLRAEDTAVYYCARSLARTTAMDYWGEGTLVTVSSASTKGPSVFPLAPSSKSTSGGTAALGCLVKDYFPEPVTVSWNSGALTSGVHTFPAVLQSSGLYSLSSVVTVPSSSLGTQTYICNVNHKPSNTKVDKKVEPKSCDKTHTCPPCPAPELLGDDSVFLFPPKPKDTLMISRTPEVTCVVIDVAEEDGEVKFNWYVDGVEVHNAKTKPREEQYNSTYRVVSVLTVLHQDWLNGKEYKCKVSNKALPRPIEKTISKAKGQPREPQVYTLPPSRDELTKNQVSLTCLVKGFYPSDIAVEWESNGQPENNYKTTPPVLDSDGSFFLYSKLTVDKSRWQQGNVFSCSVMHEALHNHYTQESLSLSP
chain 2: not shown
B4: IL6R-BP480 (antibody)
chain 1: QVQLQESGPGLVKPSETLSLTCAVSGHSISHDHAWSWVRQPPGEGLEWIGFISYSGITNYNPSLQGRVTISRDNSKNTLYLQMNSLRAEDTAVYYCARSLARTTAMDYWGEGTLVTVSSASTKGPSVFPLAPSSKSTSGGTAALGCLVKDYFPEPVTVSWNSGALTSGVHTFPAVLQSSGLYSLSSVVTVPSSSLGTQTYICNVNHKPSNTKVDKKVEPKSCDKTHTCPPCPAPDLLGDDSVFLFPPKPKDTLMISRTPEVTCVVVDLSEDDGEVKFNWYVDGVEVHNAKTKPREEQYNSTYRVVSVLTVLHQDWLNGKEYKCKVSNKALPAPIEKTISKAKGQPREPQVYTLPPSRDELTKNQVSLTCLVKGFYPSDIAVEWESNGQPENNYKTTPPVLDSDGSFFLYSKLTVDKSRWQQGNVFSCSVMHEALHNHYTQESLSLSP
chain 2: not shown
B5: IL6R-BP506 (antibody)
chain 1: QVQLQESGPGLVKPSETLSLTCAVSGHSISHDHAWSWVRQPPGEGLEWIGFISYSGITNYNPSLQGRVTISRDNSKNTLYLQMNSLRAEDTAVYYCARSLARTTAMDYWGEGTLVTVSSASTKGPSVFPLAPSSKSTSGGTAALGCLVKDYFPEPVTVSWNSGALTSGVHTFPAVLQSSGLYSLSSVVTVPSSSLGTQTYICNVNHKPSNTKVDKKVEPKSCDKTHTCPPCPAPDLLGDDSVFLFPPKPKDTLMISRTPEVTCVVIDVAEEDGPVKFNWYVDGVEVHNAKTKPREEQDNSTYRVVSVLTVLHQDWLNGKEYKCKVSNKALPRPIEKTISKAKGQPREPQVYTLPPSRDELTKNQVSLTCLVKGFYPSDIAVEWESNGQPENNYKTTPPVLDSDGSFFLYSKLTVDKSRWQQGNVFSCSVMHEALHNHYTQESLSLSP
chain 2: not shown
B6: IL6R-BP428 (antibody)
chain 1: QVQLQESGPGLVKPSETLSLTCAVSGHSISHDHAWSWVRQPPGEGLEWIGFISYSGITNYNPSLQGRVTISRDNSKNTLYLQMNSLRAEDTAVYYCARSLARTTAMDYWGEGTLVTVSSASTKGPSVFPLAPSSKSTSGGTAALGCLVKDYFPEPVTVSWNSGALTSGVHTFPAVLQSSGLYSLSSVVTVPSSSLGTQTYICNVNHKPSNTKVDKKVEPKSCDKTHTCPPCPAPDLLGDDSVFLFPPKPKDTLMISRTPEVTCVVVDVGEEDGEVKFNWYVDGVEVHNAKTKPREEQYNSTYRVVSVLTVLHQDWLNGKEYKCKVSNKALPRPIEKTISKAKGQPREPQVYTLPPSRDELTKNQVSLTCLVKGFYPSDIAVEWESNGQPENNYKTTPPVLDSDGSFFLYSKLTVDKSRWQQGNVFSCSVMHEALHNHYTQESLSLSP
chain 2: not shown
B7: IL6R-BP268 (antibody)
chain 1: QVQLQESGPGLVKPSETLSLTCAVSGHSISHDHAWSWVRQPPGEGLEWIGFISYSGITNYNPSLQGRVTISRDNSKNTLYLQMNSLRAEDTAVYYCARSLARTTAMDYWGEGTLVTVSSASTKGPSVFPLAPSSKSTSGGTAALGCLVKDYFPEPVTVSWNSGALTSGVHTFPAVLQSSGLYSLSSVVTVPSSSLGTQTYICNVNHKPSNTKVDKKVEPKSCDKTHTCPPCPAPDLLGDDSVFLFPPKPKDTLMISRTPEVTCVVVDVSEEDGEVKFNWYVDGVEVHNAKTKPREEQDNSTYRVVSVLTVLHQDWLNGKEYKCKVSNKALPAPIEKTISKAKGQPREPQVYTLPPSRDELTKNQVSLTCLVKGFYPSDIAVEWESNGQPENNYKTTPPVLDSDGSFFLYSKLTVDKSRWQQGNVFSCSVMHEALHNHYTQESLSLSP
chain 2: not shown
B8: IL6R-BP438 (antibody)
chain 1: QVQLQESGPGLVKPSETLSLTCAVSGHSISHDHAWSWVRQPPGEGLEWIGFISYSGITNYNPSLQGRVTISRDNSKNTLYLQMNSLRAEDTAVYYCARSLARTTAMDYWGEGTLVTVSSASTKGPSVFPLAPSSKSTSGGTAALGCLVKDYFPEPVTVSWNSGALTSGVHTFPAVLQSSGLYSLSSVVTVPSSSLGTQTYICNVNHKPSNTKVDKKVEPKSCDKTHTCPPCPAPDLLGDDSVFLFPPKPKDTLMISRTPEVTCVVVDVAEEDGEVKFNWYVDGVEVHNAKTKPREEQYNSTYRVVSVLTVLHQDWLNGKEYKCKVSNKALPRPTEKTISKAKGQPREPQVYTLPPSRDELTKNQVSLTCLVKGFYPSDIAVEWESNGQPENNYKTTPPVLDSDGSFFLYSKLTVDKSRWQQGNVFSCSVMHEALHNHYTQESLSLSP
chain 2: not shown

What was measured:
Experiment in all cases: SPR
human FcγRIIa R131 = molecular target: T1, human FcγRIIa R131
human FcγRIIIa V158 = human FcγRIIIa V158 (human, UniProt P08637)
human FcγRIIa H131 = molecular target: T2, human FcγRIIa H131
human FcγRIa = molecular target: T3, human FcγRIa
human FcγRIIb = molecular target: T4, human FcγRIIb

Chain of human FcγRIIIa V158 (P08637 17-208 F176V): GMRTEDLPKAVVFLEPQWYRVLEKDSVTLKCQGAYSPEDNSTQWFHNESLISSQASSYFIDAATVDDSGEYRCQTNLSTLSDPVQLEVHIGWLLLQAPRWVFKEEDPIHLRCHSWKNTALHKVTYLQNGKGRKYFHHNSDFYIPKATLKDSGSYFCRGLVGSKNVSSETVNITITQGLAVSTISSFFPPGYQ

Row | Binder | Kd (human FcγRIIa R131) [nM] | Kd (human FcγRIIIa V158) [nM] | Kd (human FcγRIIa H131) [nM] | Kd (human FcγRIa) [nM] | Kd (human FcγRIIb) [nM]
1 | B1 | 350 | 26000 | 2800 | 7.4 | 
2 | B2 | 100 | 26000 |  | 2.6 | 2.9
3 | B3 | 110 | 23000 |  | 4.5 | 2.4
4 | B4 | 6300 | 46000 | 21000 |  | 200
5 | B5 | 120 | 55000 |  | 3.1 | 3.4
6 | B6 | 390 |  | 32000 |  | 
7 | B7 |  | 28000 | 21000 | 4.5 | 92
8 | B8 | 180 |  | 1600 |  | 

From patent US11827699 (dated 2023)
